Here are results for one substance from article PMC3643604.

The assay addresses MED25 ACID/PTOV domain (purified) (human). As to the kind of experiment: ITC. A general note: ITC needs no label: the signal is the heat of the interaction.

As for “ERM 38–68 peptide (from UniProt P41161 38-68)”, the Kd is 543 nM and the stoichiometry N worked out at 1.

Usually Kd stands for the concentration at which binding is half-saturated. In general, stoichiometry N refers to the number of molecules, sites or subunits per partner or assembly.
